Values of other authors as cited in patent US20060003347A1 (priority 2002, published 2006).

How the values were obtained:
[1] = pH 8.5
[2] = literature

Row | Compound | Rate of base-catalysed hydrolysis [1] [s⁻¹] | kcat [2] [s⁻¹]
1 | CCOP(=O)(OCC)Oc1ccc([N+](=O)[O-])cc1 [paraoxon] | 2.4e-07 | –
2 | acetylcholinesterase | – | 14000
3 | catalase | – | 4e+07
